Data set [1] concerns the target T1, C-reactive protein (CRP) (Homo sapiens, UniProt P02741 P02741:19-224).
T1 sequence: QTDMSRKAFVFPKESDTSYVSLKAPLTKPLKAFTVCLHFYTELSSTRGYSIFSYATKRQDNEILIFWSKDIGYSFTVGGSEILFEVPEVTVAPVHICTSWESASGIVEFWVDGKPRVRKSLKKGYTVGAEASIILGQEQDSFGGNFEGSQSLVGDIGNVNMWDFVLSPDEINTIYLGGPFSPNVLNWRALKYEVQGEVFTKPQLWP
Kind of data set: SPR; Biacore X, SA chip with biotinylated aptamer, 10 mM Tris, 50 mM NaCl, 2 mM CaCl2, 25 C, 1:1 Langmuir. To be noted: immobilised on Dynabeads M-450 Epoxy for SELEX, in solution for SPR; chain copies: 5 inferred (pentamer). As for the experimental part:
Then, 90 μL of the aptamer solution A being cooled to 4° C. is aliquoted, and the aptamer solution A is injected to pass the surface of the SA sensor chip, so that the aptamers A in the aptamer solution A is coated on the surface of the SA sensor chip. Later, 90 μL of the reverse primer solution is injected and passes through the surface of the SA sensor chip for blocking. Subsequently, 5×SSCT buffer is used to wash the surface of the SA sensor chip until the SPR response reaches a balance.
Five cycles as described in the following are then performed. Here, each cycle includes: (1) injecting 90 μL of the testing solution to pass through the surface of the SA sensor chip; (2) washing the surface of the SA sensor chip by using 90 μL of a washing buffer C (10 mM Tris buffer containing 50 mM NaCl and 2 mM CaCl₂); (3) recording the SPR response of the SA sensor chip for 5 min; and (4) injecting 90 μL of 100 mM NaOH to pass the surface of the SA sensor chip, so that the surface of the SA sensor chip is regenerated. The testing solutions used in the five cycles are washing buffers C respectively having a CRP concentration of 0.01, 0.05, 0.1, and 0.5 mg/L.
FIG. 4 is a SPR response measured under different CRP concentrations detected by the SA sensor chip coated with aptamers A along with time in the Biacore X system. […]

In data set [2] the target is T1, C-reactive protein (CRP). Kind of data set: competition; PCR product 3; CRP-coated tube, competition with free CRP, PCR readout, 25 C. To be noted: immobilised on Dynabeads M-450 Epoxy for SELEX, in solution for SPR; chain copies: 5 inferred (pentamer).

This is an account of results in US20110318846, “Aptamer and detection method for C-reactive protein” (National Cheng-Kung University, published 2011).

B1: aptamer A (ssDNA)
DNA: GGCAGGAAGACAAACACGATGGGGGGGTATGATTTGATGTGGTTGTTGCATGATCGTGGTCTGTGGTGCTGT
modifications: 5'-biotin (SPR and bead assay)
The molecule B1 showed a Kd with C-reactive protein (CRP) [1] of 3.51 nM.

B2: aptamer B (ssDNA)
DNA: GGCAGGAAGACAAACACACAAGCGGGTGGGTGTGTACTATTGCAGTATCTATTCTGTGGTCTGTGGTGCTGT
For the molecule B2, the binding result with C-reactive protein (CRP) [2] was “binds”.
